From patent publication US20190367619A1 (ARGENX, published 2019) come the findings set out here.

Read-outs that look alike come from different tables or passages of the source. Some results are limits rather than exact numbers.

Test [1] concerns the target T1, TEV-cleaved wild-type recombinant human galectin-10 (soluble, in Fab complexes, or as recombinant galectin-10 … (human, UniProt Q05315 1-142)).
T1 sequence: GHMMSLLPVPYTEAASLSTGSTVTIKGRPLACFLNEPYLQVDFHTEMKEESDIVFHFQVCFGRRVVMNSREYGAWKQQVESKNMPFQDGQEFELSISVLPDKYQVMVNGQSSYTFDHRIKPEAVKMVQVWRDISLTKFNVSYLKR
As to the kind of experiment: cell-based or functional assay.

The target of test [2] is T1, TEV-cleaved wild-type recombinant human …. As to the kind of experiment: cell-based or functional assay. This is another data set of the same source.
The target is the same in test [3]. As to the kind of experiment: cell-based or functional assay. The source holds these as a separate data set.
Test [4] concerns the target T2, human galectin-10-His (recombinant human galectin-10 with TEV-cleavable N-terminal His-tag) (human).
T2 construct: SEC-MALLS: dimer in solution; also called Gal10-His; humanGal10-His
T2 chain: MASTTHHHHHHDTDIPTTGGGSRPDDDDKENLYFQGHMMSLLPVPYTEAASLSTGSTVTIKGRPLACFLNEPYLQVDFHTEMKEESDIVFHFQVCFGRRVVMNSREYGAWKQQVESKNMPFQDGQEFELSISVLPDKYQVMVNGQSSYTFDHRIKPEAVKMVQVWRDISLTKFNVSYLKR
Nature of the test: Biacore capture approach (summary table), mouse IgG1. As for the experimental part:
The binding capacity of the mouse IgG1 antibodies to galectin-10 was analyzed on Biacore T3000. For this purpose, a capture approach was set up. A CM5 Chip was coated with polyclonal anti-mouse Fc at 8000 RU, then a fixed concentration of the mouse IgG1 antibody panel (1.5 μg/mL), diluted in HBS-EP pH7.4, was captured to reach a binding signal around 150 RU. Finally, a serial dilution of galectin-10-His (serial dilution, 1 over 2 from 5 μg/mL) diluted in HBS-EP pH7.4 was injected. Raw data were analyzed via BIA evaluation software with a blank subtraction (4-3). The kd/KD and Rmax of each mAb to galectin-10-His was determined using the Fit Kinetics simultaneous ka/kd/Binding with mass transfer/Local Rmax on BIA evaluation software.

Test [5] deals with T3, cynomolgus galectin-10-His, WGS isoform (cynomolgus).
T3 construct: not shown: His tag
T3 chain: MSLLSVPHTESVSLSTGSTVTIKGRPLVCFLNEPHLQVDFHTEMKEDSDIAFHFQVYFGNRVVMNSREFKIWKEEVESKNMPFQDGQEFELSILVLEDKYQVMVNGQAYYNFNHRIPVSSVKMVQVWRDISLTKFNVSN
Nature of the test: ELISA, mouse IgG1 on coated cynoGal10-His_WGS (0.5 ug/mL). As for the experimental part: (§1) In a similar setup to that used during the characterization of the scFv-human Fc molecules, the relative binding properties of the 7 mouse IgG1 antibodies were analyzed by ELISA. A Maxisorp plate was coated overnight with 0.5 μg/mL of human or cynomolgus WGS or YRT isoform of galectin-10-His. Then a serial dilution of each clone (from 100 nM, dilution 1/4, 12 points of dilutions) was incubated on coated galectin-10. After several washing steps, detection of the bound mouse IgG1 was carried out with an anti-mouse Fc-HRP antibody (DAMPO, Jackson ImmunoResearch, Catalog 715-035-150). Absorbance was measured at 450 nm (reference at 620 nm) with Tecan instrument. The raw data (OD values) were plotted on GraphPad Prism 7.01. The EC50 values for each antibody, calculated with a non-linear regression (log(agonist) vs. response Variable slope (four parameters)), are shown in the table below. Antibody 1D11 from the previous panel was included for comparison.

Test [6] concerns the target T4, cynomolgus galectin-10-His, YRT isoform (cynomolgus).
T4 construct: not shown: His tag
T4 chain: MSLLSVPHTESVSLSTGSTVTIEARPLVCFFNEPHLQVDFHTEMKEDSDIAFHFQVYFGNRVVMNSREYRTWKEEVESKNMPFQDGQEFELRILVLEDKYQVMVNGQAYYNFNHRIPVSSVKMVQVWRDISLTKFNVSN
Nature of the test: ELISA, mouse IgG1 on coated cynoGal10-His_YRT (0.5 ug/mL). As for the experimental part: as §1

The target in test [7] is T2, human galectin-10-His (recombinant …). Nature of the test: BLI tandem on galectin-10-His; competitor: saturating 1C09 mIgG1 (10 ug/mL). In a few lines: (§2)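 In this tandem epitope-mapping format, galectin-10-His is immobilised through its His-tag on anti-His sensors. Sensors are first exposed to excess saturating antibody and then transferred without delay to competitor antibody at suboptimal concentration, and binding is recorded in nm.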

For test [8] the target is unchanged. As to the kind of experiment: BLI tandem on galectin-10-His; competitor: saturating 1D11 mIgG1 (10 ug/mL). The gist of the method:
as §2

The target is the same in test [9]. As to the kind of experiment: BLI tandem on galectin-10-His; competitor: saturating 2C07 mIgG1 (10 ug/mL). In a few lines:
as §2

The target is the same in test [10]. Nature of the test: BLI tandem on galectin-10-His; competitor: saturating 2F09 mIgG1 (10 ug/mL). The gist of the method: as §2
The target is the same in test [11]. As to the kind of experiment: BLI tandem on galectin-10-His; isotype control as saturating antibody (10 ug/mL). In a few lines: as §2

B1: 1D11 mouse IgG1 (antibody, V domains shown)
VH: QVQLVESGGGLVQPGGSLRLSCAASGFTFDDYAMSWVRQAPGKGLEWVSGISWNGGSTYYAESMKGRFTISRDNAKNTLYLQMNSLKSEDTAVYYCAKDRNLGYRLGYPYDYWGQGTQVTVSS
VL: QSVLTQPPSVSGSPGETVTISCAGTSSDVGYGNYVSWYQQLPGMAPRLLIYEVNKRASGITDRFSGSKSGNTASLTISGLQSEDEGDYYCASYRSSNNAVFGGGTHLTVL
notes: VH on mouse IgG1 heavy chain constant domains (CH1-CH2-CH3), VL on mouse lambda light chain constant domain; also called 1D011; 1D11 mIgG1
Turning to B1, the “dissolution of in vitro grown Gal10 crystals (spinning disk confocal microscopy)” value in [1] was no more than 90 min. Moreover, the “100% Solubilization of CLC (Conc uM)” value in test [2] and in test [3] was 7.86 µM throughout. Further, the “100% Inhibition of CLC formation (Conc uM)” value in [3] turned out to be 0.34 µM. Moreover, in test [4], the Kd amounted to 1 nM. Moreover, the off-rate (koff) in [4] was 0.00529 s⁻¹. Moreover, the binding result in test [5] and in test [6] was “no binding” each time. Besides, the “binding signal (nm)” value in test [7] came to 0.01 nm; in test [8], 0.06 nm; in test [9], 0.02 nm; in [10], 0.02 nm; in test [11], 1.18 nm.
